Source: patent US20260167699A1 (Chugai, published 2026)
Numbering of substitutions follows the chain as printed.

B1: GpH7-A5/GpH7-B3 variant G236_13S/GpL16-k0 (antibody, human IgG1, kappa)
heavy 1: not shown
heavy 2: not shown
light: DIVMTQSPLSLPVTPGEPASISCQASESLVHSNRNTYLHWYLQKPGQSPQLLIYKVSNRFSGVPDRFSGSGSGTDFTLKISRVEAEDVGVYYCSQNTHVPPTFGQGTKVEIERTVAAPSVFIFPPSDEQLKSGTASVVCLLNNFYPREAKVQWKVDNALQSGNSQESVTEQDSKDSTYSLSSTLTLSKADYEKHKVYACEVTHQGLSSPVTKSFNRGEC
B2: GpH7-A5/GpH7-B3 variant H268_18N/GpL16-k0 (antibody, human IgG1, kappa)
heavy 1: not shown
heavy 2: not shown
light: B1 light
B3: GpH7-A5/GpH7-B3 variant H268_09D/GpL16-k0 (antibody, human IgG1, kappa)
heavy 1: not shown
heavy 2: not shown
light: B1 light
B4: GpH7-A5/GpH7-B3 variant H268_02A/GpL16-k0 (antibody, human IgG1, kappa)
heavy 1: not shown
heavy 2: not shown
light: B1 light
B5: GpH7-A5/GpH7-B3 variant L234_02A/GpL16-k0 (antibody, human IgG1, kappa)
heavy 1: not shown
heavy 2: not shown
light: B1 light
B6: GpH7-A5/GpH7-B3 variant H268_06M/GpL16-k0 (antibody, human IgG1, kappa)
heavy 1: not shown
heavy 2: not shown
light: B1 light
B7: GpH7-A5/GpH7-B3 variant L234_04F/GpL16-k0 (antibody, human IgG1, kappa)
heavy 1: not shown
heavy 2: not shown
light: B1 light
B8: GpH7-A5/GpH7-B3 variant H268_04F/GpL16-k0 (antibody, human IgG1, kappa)
heavy 1: not shown
heavy 2: not shown
light: B1 light
B9: GpH7-A5/GpH7-B3 variant H268_03V/GpL16-k0 (antibody, human IgG1, kappa)
heavy 1: not shown
heavy 2: not shown
light: B1 light
B10: GpH7-A5/GpH7-B3 variant H268_05P/GpL16-k0 (antibody, human IgG1, kappa)
heavy 1: not shown
heavy 2: not shown
light: B1 light
B11: GpH7-A5/GpH7-B3 variant L234_01G/GpL16-k0 (antibody, human IgG1, kappa)
heavy 1: not shown
heavy 2: not shown
light: B1 light
B12: GpH7-A5/GpH7-B3 variant L234_03V/GpL16-k0 (antibody, human IgG1, kappa)
heavy 1: not shown
heavy 2: not shown
light: B1 light
B13: GpH7-A5/GpH7-B3 variant L234_05P/GpL16-k0 (antibody, human IgG1, kappa)
heavy 1: not shown
heavy 2: not shown
light: B1 light
B14: GpH7-A5/GpH7-B3 variant H268_12R/GpL16-k0 (antibody, human IgG1, kappa)
heavy 1: not shown
heavy 2: not shown
light: B1 light
B15: GpH7-A5/GpH7-B3 variant H268_13S/GpL16-k0 (antibody, human IgG1, kappa)
heavy 1: not shown
heavy 2: not shown
light: B1 light
B16: GpH7-A5/GpH7-B3 variant G236_20W/GpL16-k0 (antibody, human IgG1, kappa)
heavy 1: not shown
heavy 2: not shown
light: B1 light
B17: GpH7-A5/GpH7-B3 variant H268_08L/GpL16-k0 (antibody, human IgG1, kappa)
heavy 1: not shown
heavy 2: not shown
light: B1 light
B18: GpH7-A5/GpH7-B3 variant H268_15Y/GpL16-k0 (antibody, human IgG1, kappa)
heavy 1: not shown
heavy 2: not shown
light: B1 light
B19: GpH7-A5/GpH7-B3 variant H268_20W/GpL16-k0 (antibody, human IgG1, kappa)
heavy 1: not shown
heavy 2: not shown
light: B1 light
B20: GpH7-A5/GpH7-B3 variant H268_11K/GpL16-k0 (antibody, human IgG1, kappa)
heavy 1: not shown
heavy 2: not shown
light: B1 light
B21: GpH7-A5/GpH7-B3 variant H268_07I/GpL16-k0 (antibody, human IgG1, kappa)
heavy 1: not shown
heavy 2: not shown
light: B1 light
B22: GpH7-A5/GpH7-B3 variant H268_01G/GpL16-k0 (antibody, human IgG1, kappa)
heavy 1: not shown
heavy 2: not shown
light: B1 light
B23: GpH7-A5/GpH7-B3 variant H268_19Q/GpL16-k0 (antibody, human IgG1, kappa)
heavy 1: not shown
heavy 2: not shown
light: B1 light
B24: GpH7-A5/GpH7-B3 variant L234_06M/GpL16-k0 (antibody, human IgG1, kappa)
heavy 1: not shown
heavy 2: not shown
light: B1 light
B25: GpH7-A5/GpH7-B3 variant H268_10E/GpL16-k0 (antibody, human IgG1, kappa)
heavy 1: not shown
heavy 2: not shown
light: B1 light

Tests used:
Test in all cases: SPR, vs GpH7-A5/GpH7-B3/GpL16-k0 =100
[1] = molecular target: T1, FcγRIa extracellular domain, His-tagged (human, UniProt P12314 16-292)
T1 construct: extracellular domain; also called 1a
T1 sequence (P12314 other isoform, or with tags, fused parts or gaps): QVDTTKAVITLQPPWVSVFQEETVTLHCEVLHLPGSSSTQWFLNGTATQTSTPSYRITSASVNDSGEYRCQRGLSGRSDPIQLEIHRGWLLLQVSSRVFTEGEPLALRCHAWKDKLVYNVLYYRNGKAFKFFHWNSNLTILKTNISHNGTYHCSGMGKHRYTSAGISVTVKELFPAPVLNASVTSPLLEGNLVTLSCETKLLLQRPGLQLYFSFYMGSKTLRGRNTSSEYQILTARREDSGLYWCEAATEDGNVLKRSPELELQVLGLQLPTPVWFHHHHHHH

[2] = molecular target: T2, FcγRIIa(H) extracellular domain, His-tagged (human, UniProt P12318 34-217)
T2 construct: extracellular domain; also called 2aH
T2 sequence: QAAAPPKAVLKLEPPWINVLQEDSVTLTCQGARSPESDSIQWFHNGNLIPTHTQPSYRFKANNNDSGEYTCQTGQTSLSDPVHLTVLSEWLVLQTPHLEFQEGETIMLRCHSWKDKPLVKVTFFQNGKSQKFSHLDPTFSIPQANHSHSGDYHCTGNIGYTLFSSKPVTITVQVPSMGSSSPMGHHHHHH

[3] = molecular target: T3, FcγRIIIa extracellular domain, His-tagged (human, UniProt P08637 17-208)
T3 construct: extracellular domain; also called 3a
T3 sequence (P08637 other isoform, or with tags, fused parts or gaps): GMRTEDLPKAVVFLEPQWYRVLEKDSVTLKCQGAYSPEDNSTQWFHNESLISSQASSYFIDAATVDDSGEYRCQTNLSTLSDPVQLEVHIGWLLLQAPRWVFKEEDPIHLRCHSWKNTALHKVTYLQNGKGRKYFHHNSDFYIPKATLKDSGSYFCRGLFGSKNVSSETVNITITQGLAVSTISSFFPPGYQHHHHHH

[4] = molecular target: T4, FcγRIIb extracellular domain, His-tagged (human, UniProt P31994 43-217)
T4 construct: extracellular domain; also called 2b
T4 sequence: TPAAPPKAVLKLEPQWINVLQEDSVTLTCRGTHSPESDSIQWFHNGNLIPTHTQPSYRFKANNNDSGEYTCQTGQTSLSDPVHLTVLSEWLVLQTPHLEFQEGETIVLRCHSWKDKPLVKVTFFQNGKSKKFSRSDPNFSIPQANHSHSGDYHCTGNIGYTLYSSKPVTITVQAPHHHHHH

[5] = molecular target: T5, FcγRIIa(R) extracellular domain, His-tagged (human, UniProt P12318 34-217)
T5 construct: extracellular domain; also called 2aR
T5 sequence: T2 sequence with H134R

Binder	He/Con 1a [1]	He/Con 2aH [2]	He/Con 3a [3]	He/Con 2b [4]	He/Con 2aR [5]
B1	96 % of control	140 % of control	60.3 % of control	101 % of control	135 % of control
B2	104 % of control	113 % of control	103 % of control	164 % of control	138 % of control
B3	106 % of control	134 % of control	195 % of control	251 % of control	161 % of control
B4	105 % of control	115 % of control	121 % of control	175 % of control	143 % of control
B5	101 % of control	90.1 % of control	69.7 % of control	74.1 % of control	92.5 % of control
B6	101 % of control	85.8 % of control	79.5 % of control	69 % of control	87.2 % of control
B7	104 % of control	133 % of control	114 % of control	114 % of control	121 % of control
B8	103 % of control	112 % of control	96 % of control	94.2 % of control	105 % of control
B9	103 % of control	100 % of control	91.4 % of control	120 % of control	117 % of control
B10	106 % of control	82.7 % of control	75.6 % of control	122 % of control	114 % of control
B11	99.2 % of control	84.1 % of control	55.8 % of control	57.8 % of control	72.4 % of control
B12	108 % of control	94.4 % of control	88.3 % of control	83.4 % of control	99 % of control
B13	103 % of control	104 % of control	85.1 % of control	83.2 % of control	104 % of control
B14	103 % of control	90.9 % of control	76 % of control	94.3 % of control	113 % of control
B15	106 % of control	114 % of control	121 % of control	168 % of control	137 % of control
B16	104 % of control	153 % of control	126 % of control	60.7 % of control	77.3 % of control
B17	104 % of control	85.9 % of control	75.9 % of control	71.2 % of control	91.4 % of control
B18	104 % of control	113 % of control	96.5 % of control	112 % of control	118 % of control
B19	103 % of control	96.9 % of control	82 % of control	117 % of control	122 % of control
B20	102 % of control	89.8 % of control	81.6 % of control	87.2 % of control	108 % of control
B21	104 % of control	91.2 % of control	84.1 % of control	93.4 % of control	102 % of control
B22	104 % of control	100 % of control	95.7 % of control	151 % of control	134 % of control
B23	104 % of control	104 % of control	113 % of control	140 % of control	128 % of control
B24	107 % of control	96.4 % of control	82.9 % of control	89.6 % of control	109 % of control
B25	107 % of control	126 % of control	184 % of control	242 % of control	159 % of control
